Residue numbers refer to the chain shown, from its start.
B1: E5 (designed binder)
chain: EVVAATPTSLLISWRHPHFPTRYYRITYGETGGNSPVQEFTVPLQPPTATISGLKPGVDYTITGYAVTDGQNGRLLNVPISINYRT
notes: Del 1-8 10Fn3 clone; Flag tag of the radioactive-assay form not included
B2: E25 (designed binder)
chain: B1 chain with D69L, G70E, Q71R, L75E, N77M, V78T
notes: as for B1
B3: E26 (designed binder)
chain: B1 chain with D69V, G70E, Q71R, L75E, N77M, V78T
notes: 10Fn3 clone, Del 1-8
B4: E28 (designed binder)
chain: B1 chain with D69L, G70E, Q71R, L75E, N77M
notes: 10Fn3 clone, Del 1-8
B5: E19 (designed binder)
chain: B1 chain with D69V, G70E, Q71R, L75H, N77M, V78T
notes: 10Fn3 clone, Del 1-8
B6: E25 (designed binder)
chain: B1 chain with D69L, G70E, Q71R, L75E, N77M, V78T
notes: 10Fn3 clone, Del 1-8
B7: E5 (designed binder)
chain: B1 chain
notes: 10Fn3 clone, Del 1-8
B8: E3 (designed binder)
chain: B1 chain with Q71R, G73D, L75K, N77M
notes: 10Fn3 clone, Del 1-8
B9: E9 (designed binder)
chain: B1 chain with D69E, G70E, Q71R, L75T, N77R, V78T
notes: 10Fn3 clone, Del 1-8
B10: E6 (designed binder)
chain: B1 chain with Q71W, N77S, V78I
notes: 10Fn3 clone, Del 1-8
B11: E18 (designed binder)
chain: B1 chain with D69V, G70E, Q71R, L75E, V78T
notes: 10Fn3 clone, Del 1-8
B12: E29 (designed binder)
chain: B1 chain with D69V, G70E, Q71R, L75V, N77M, V78T
notes: 10Fn3 clone, Del 1-8
B13: M5FL-PEG40 (designed binder)
chain: MGVSDVPRDLEVVAATPTSLLISWRHPHFPTRYYRITYGETGGNSPVQEFTVPLQPPLATISGLKPGVDYTITVYAVTKERNGRELFTPISINYRTEIDKPCQHHHHHH
modifications: branched 40 kD PEG coupled by maleimide chemistry to the cysteine residue at position 100
notes: also called M5FL 40K PEG
B14: E25 (designed binder)
chain: B1 chain with D69L, G70E, Q71R, L75E, N77M, V78T
notes: Del 1-8 10Fn3 clone; Flag-tagged in vitro translated protein in the radioactive assay, His6-tagged E. coli protein in BIAcore; tags left out
B15: E6 (designed binder)
chain: B1 chain with Q71W, N77S, V78I
notes: as for B14
B16: K14 (designed binder)
chain: B1 chain with D69R, G70E, Q71E, G73D, R74H, L75E, N77L, V78I
notes: tag left out
B17: K15 (designed binder)
chain: B1 chain with D69E, G70V, Q71H, N72H, G73D, L75E, L76I, N77K, V78T
notes: tag left out
B18: K10 (designed binder)
chain: B1 chain with D69T, Q71P, G73D, N77F
notes: tag left out
B19: K12 (designed binder)
chain: B1 chain with G70V, Q71Y, G73D, R74H, L75E, L76I, N77K, V78T
notes: tag left out
B20: K13 (designed binder)
chain: B1 chain with D69L, G70A, Q71L, N72K, R74H, L75E, N77L, V78T
notes: tag left out
B21: K1 (designed binder)
chain: B1 chain with D69M, Q71L, N72Y, R74H, L75E, N77L, V78T
notes: tag left out
B22: K6 (designed binder)
chain: B1 chain with Q71K, N72D, L75V, N77L, V78T
notes: tag left out
B23: K9 (designed binder)
chain: B1 chain with D69F, Q71L, N72Y, R74K, L75E, N77L, V78I
notes: tag left out
B24: E5 (designed binder)
chain: B1 chain
notes: Del 1-8 10Fn3 clone; Flag-tagged in vitro translated protein in the radioactive assay; tag left out
B25: E28 (designed binder)
chain: B1 chain with D69L, G70E, Q71R, L75E, N77M
notes: as for B24
B26: E3 (designed binder)
chain: B1 chain with Q71R, G73D, L75K, N77M
notes: as for B24
B27: E9 (designed binder)
chain: B1 chain with D69E, G70E, Q71R, L75T, N77R, V78T
notes: as for B24

biological target: T1, mouse vascular endothelial growth factor receptor-2 Fc chimera (Flk-1-Fc) (mouse, UniProt P35918 20-762); assay: radioactive equilibrium binding (assay not given)
T1 construct: Purchased from R&D Systems; also called mouse VEGF-R2; not shown: Fc part of the purchased chimera
Description: (§1) To prepare ³⁵S-labeled binding proteins for analysis, mRNA was prepared as described above for RNA-protein fusion production but the linker ligation step was omitted. The mRNA was expressed using rabbit reticulocyte lysate translation kit (Ambion) in the presence of ³⁵S-labeled Met at 30° C. for 1 hour. Expressed protein was purified on M2-agarose Flag beads (Sigma) as described above. This procedure produced the encoded protein without the nucleic acid tail. In a direct binding assay, VEGF-R2-Fc fusions in concentrations ranging from 0 to 200 nM were added to a constant concentration of the purified protein (0.2 or 0.5 nM) and incubated at 30° C. for 1 hour in buffer B. The receptor-binder complexes were captured using Protein A magnetic beads for another 10 minutes at room temperature using a Kingfisher™ The beads were washed with six reaction volumes of buffer B. The protein was eluted from the beads with 100 μL of 0.1 M KOH. […] of the reaction mixture and elution were dried onto a LumaPlate-96 (Packard) and the amount of ³⁵S on the plate was measured using a TopCount NXT instrument (Packard). The amount of fibronectin-based scaffold protein bound to the target was estimated as a percent of radioactivity eluted from Protein A magnetic beads compare to radioactivity in the reaction mixture. Nonspecific binding of fibronectin-based scaffold proteins to the beads was determined by measuring binding in the absence of KDR-Fc and represented less than 1-2% of the input. Specific binding was obtained through subtraction of nonspecific binding from total binding. Data was analyzed using the GraphPad Prizm software (GraphPad Software, Inc, San Diego, Calif.), fitted using a one site, non-linear binding equation.
T1 sequence (P35918 20-762, change not shown): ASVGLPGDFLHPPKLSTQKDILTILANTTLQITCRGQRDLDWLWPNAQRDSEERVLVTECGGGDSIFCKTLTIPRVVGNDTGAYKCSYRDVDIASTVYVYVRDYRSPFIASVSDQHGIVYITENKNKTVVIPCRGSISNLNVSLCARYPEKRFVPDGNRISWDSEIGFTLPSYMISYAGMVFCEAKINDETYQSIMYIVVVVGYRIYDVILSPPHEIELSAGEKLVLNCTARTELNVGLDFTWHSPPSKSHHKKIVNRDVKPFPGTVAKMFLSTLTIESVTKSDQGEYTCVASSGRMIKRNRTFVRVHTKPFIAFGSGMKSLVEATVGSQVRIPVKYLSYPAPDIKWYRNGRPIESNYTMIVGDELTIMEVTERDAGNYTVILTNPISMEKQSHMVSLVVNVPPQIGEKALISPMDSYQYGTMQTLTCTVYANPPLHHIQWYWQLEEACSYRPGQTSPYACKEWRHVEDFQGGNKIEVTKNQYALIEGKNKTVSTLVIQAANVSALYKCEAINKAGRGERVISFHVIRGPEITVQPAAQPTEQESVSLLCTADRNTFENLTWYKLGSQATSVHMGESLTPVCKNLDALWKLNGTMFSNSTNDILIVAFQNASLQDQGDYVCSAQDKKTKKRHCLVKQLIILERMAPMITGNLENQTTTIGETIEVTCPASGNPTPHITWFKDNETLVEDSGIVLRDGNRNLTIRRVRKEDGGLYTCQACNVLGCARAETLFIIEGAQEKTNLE

| Kd | Binder |
| --- | --- |
| 3.2 nM | B1 |
| 1.3 nM | B2 |

biological target: T2, human vascular endothelial growth factor receptor-2 Fc chimera (KDR-Fc) (human, UniProt P35968 20-764); assay: radioactive equilibrium binding (assay not given)
T2 construct: range 1-764; also called human VEGFR-2; hKDR; not shown: human IgG1 Fc
Description: as §1
T2 sequence (P35968 20-764 limits assumed, change not shown, form in doubt): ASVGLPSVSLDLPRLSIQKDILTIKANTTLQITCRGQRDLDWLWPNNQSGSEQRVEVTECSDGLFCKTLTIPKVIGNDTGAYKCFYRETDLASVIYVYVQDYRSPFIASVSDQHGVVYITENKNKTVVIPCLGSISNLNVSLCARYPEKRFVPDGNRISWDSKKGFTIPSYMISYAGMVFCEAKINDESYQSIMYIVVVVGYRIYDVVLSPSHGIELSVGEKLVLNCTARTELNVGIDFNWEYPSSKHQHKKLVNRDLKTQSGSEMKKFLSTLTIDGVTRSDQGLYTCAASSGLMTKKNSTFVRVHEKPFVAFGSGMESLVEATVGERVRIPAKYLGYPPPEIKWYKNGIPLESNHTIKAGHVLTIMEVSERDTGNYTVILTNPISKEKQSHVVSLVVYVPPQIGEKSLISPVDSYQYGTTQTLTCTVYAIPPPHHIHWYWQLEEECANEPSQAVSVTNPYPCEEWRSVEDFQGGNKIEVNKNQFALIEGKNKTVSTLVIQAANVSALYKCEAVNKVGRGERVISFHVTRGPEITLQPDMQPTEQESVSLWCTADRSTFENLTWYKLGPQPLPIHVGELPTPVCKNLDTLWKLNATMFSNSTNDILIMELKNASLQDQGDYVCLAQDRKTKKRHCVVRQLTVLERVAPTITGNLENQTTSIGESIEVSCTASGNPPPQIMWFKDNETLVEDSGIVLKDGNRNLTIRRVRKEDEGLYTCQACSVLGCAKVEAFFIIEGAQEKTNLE

| Kd | Binder |
| --- | --- |
| 0.4 nM | B1 |
| 1.58 nM | B2 |

biological target: T3, mouse vascular endothelial growth factor receptor-2 Fc chimera (Flk-1-Fc) (mouse, UniProt P35918 20-762); assay: radioactive equilibrium binding assay, Flk-1-Fc
T3 construct: Bought from R&D Systems; also called mouse VEGFR-2; not shown: Fc part of the purchased chimera, not specified
Description: as §1
T3 sequence (P35918 20-762, change not shown): as the sequence (P35918 20-762, change not shown) above

| Kd | Binder |
| --- | --- |
| 2.05 nM | B3 |
| 2.1 nM | B4 |
| 0.66 nM | B5 |
| 1.3 nM | B6 |
| 3.2 nM | B7 |
| 5.4 nM | B8 |
| 1.4 nM | B9 |
| 7.1 nM | B10 |
| 0.53 nM | B11 |
| 0.91 nM | B12 |

biological target: T4, mouse vascular endothelial growth factor receptor-2 Fc chimera (Flk-1-Fc) (mouse, UniProt P35918 20-762); assay: SPR (BIAcore), target immobilized
T4 construct: purchased from R&D Systems; also called mouse VEGF-R2-Fc; not shown: Fc part of the purchased chimera
Description: In vitro affinity measurements were made using surface plasmon resonance (SPR) (BIAcore) with both the human and mouse VEGF-receptor target proteins immobilized via amide chemistry on the BIAcore chip.
(§2) The binding kinetics of fibronectin-based scaffold proteins binding proteins to the target was measured using BIAcore 2000 biosensor (Pharmacia Biosensor). Human and mouse VEGF-R2-Fc fusions were immobilized onto a CM5 sensor chip and soluble binding proteins were injected at concentrations ranging from 0 to 100 nM in buffer 0 (10 mM HEPES, 150 mM NaCl, 0.005% Tween 20, pH 7.4). Sensorgrams were obtained at each concentration and were evaluated using a program, BIA Evaluation 2.0 (BIAcore), to determine the rate constants kₐ (kₒₙ) and kd (koff.) The affinity constant, KD was calculated from the ratio of rate constants […].
T4 sequence (P35918 20-762, change not shown): as above

| Kd | koff | kon | Binder |
| --- | --- | --- | --- |
| 57.1 nM | 0.00054 s⁻¹ | 10000 M⁻¹ s⁻¹ | B13 |

biological target: T5, human vascular endothelial growth factor receptor-2 Fc chimera (KDR-Fc) (human, UniProt P35968 20-764); assay: radioactive equilibrium binding assay, 1 nM KDR-Fc, % of input bound
T5 construct: range 1-764; also called human VEGFR-2; not shown: human IgG1 Fc
In short: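 Receptor-Fc fusions titrated from 0 to 200 nM against a fixed 0.2 or 0.5 nM of ³⁵S-labeled scaffold protein for 1 h at 30° C. Protein A bead pull-down followed by scintillation counting of eluate versus reaction mixture. Specific binding is total minus no-receptor binding, fitted to a one-site nonlinear equation.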
T5 sequence (P35968 20-764 limits assumed, change not shown, form in doubt): as the sequence (P35968 20-764 limits assumed, change not shown, form in doubt) above

| Binding to 1 nM KDR, % | Binder |
| --- | --- |
| 27% | B3 |
| 19% | B4 |
| 38% | B5 |
| 41% | B6 |
| 26% | B7 |
| 37% | B8 |
| 24% | B9 |
| 36% | B10 |
| 17% | B11 |
| 41% | B12 |

biological target: T3, mouse vascular endothelial growth …; assay: radioactive equilibrium binding assay, 1 nM Flk-1-Fc, % of input bound
In short: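 ³⁵S-Met-labeled binder protein, made by reticulocyte-lysate translation and Flag-purified, held at 0.2 or 0.5 nM with receptor-Fc (0–200 nM) for 1 h at 30° C in buffer B. Complexes captured on Protein A beads, washed, KOH-eluted. Bound signal given as % of input radioactivity minus bead-only background; one-site fit.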

| Binding to 1 nM Flk-1, % | Binder |
| --- | --- |
| 20% | B3 |
| 21% | B4 |
| 40% | B5 |
| 28% | B6 |
| 10% | B7 |
| 14% | B8 |
| 34% | B9 |
| 7% | B10 |
| 29% | B11 |
| 44% | B12 |

biological target: T6, human vascular endothelial growth factor receptor-2 Fc chimera (KDR-Fc) (human, UniProt P35968 20-764); assay: BIAcore, target-Fc immobilized
T6 construct: range 1-764; purchased from R&D Systems; also called hKDR; human VEGF-R2-Fc; not shown: human IgG1 Fc
Description: as §2
T6 sequence (P35968 20-764 limits assumed, change not shown, form in doubt): as above

| Kd | koff | kon | Binder |
| --- | --- | --- | --- |
| 0.21 nM | 5.2e-05 s⁻¹ | 250000 M⁻¹ s⁻¹ | B14 |
| 0.08 nM | 6.7e-05 s⁻¹ | 890000 M⁻¹ s⁻¹ | B15 |

biological target: T4, mouse vascular endothelial growth …; assay: BIAcore, target-Fc immobilized
Description: as §2

| Kd | koff | kon | Binder |
| --- | --- | --- | --- |
| 0.76 nM | 0.000378 s⁻¹ | 500000 M⁻¹ s⁻¹ | B14 |
| 2.02 nM | 0.00136 s⁻¹ | 670000 M⁻¹ s⁻¹ | B15 |

biological target: T2, human vascular endothelial growth …; assay: binding to 1 nM KDR-Fc, % of input; radioactive equilibrium binding (assay not given)
Description: as §1

| Binding to 1 nM KDR, % | Binder |
| --- | --- |
| 26% | B1 |
| 41% | B2 |

biological target: T1, mouse vascular endothelial growth …; assay: binding to 1 nM Flk-1-Fc, % of input; radioactive equilibrium binding (assay not given)
Description: as §1

| Binding to 1 nM FLK, % | Binder |
| --- | --- |
| 10% | B1 |
| 28% | B2 |

biological target: T5, human vascular endothelial growth …; assay: radioactive equilibrium binding assay, KDR-Fc
Description: as §1

| Kd | Binder |
| --- | --- |
| 1.66 nM | B3 |
| 1.63 nM | B4 |
| 1.3 nM | B5 |
| 1.58 nM | B6 |
| 0.4 nM | B7 |
| 0.96 nM | B8 |
| 2.37 nM | B9 |
| 0.35 nM | B10 |
| 1.2 nM | B11 |
| 1.51 nM | B12 |

biological target: T6, human vascular endothelial growth …; assay: radioactive equilibrium binding assay, KDR-Fc
Description: as §1

| Kd | Binder |
| --- | --- |
| < 0.6 nM | B16 |
| < 0.4 nM | B17 |
| < 0.6 nM | B18 |
| < 0.6 nM | B19 |
| < 0.6 nM | B20 |
| < 0.6 nM | B21 |
| < 0.9 nM | B22 |
| < 1.8 nM | B23 |

biological target: T6, human vascular endothelial growth …; assay: radioactive equilibrium binding assay
Description: as §1

| Kd | Binder |
| --- | --- |
| < 1.6 nM | B14 |
| < 0.4 nM | B24 |
| < 1.6 nM | B25 |
| < 0.4 nM | B15 |
| < 1 nM | B26 |
| 2.4 nM | B27 |

biological target: T4, mouse vascular endothelial growth …; assay: radioactive equilibrium binding assay
Description: as §1

| Kd | Binder |
| --- | --- |
| < 1.3 nM | B14 |
| 3.2 nM | B24 |
| 2.1 nM | B25 |
| 7.1 nM | B15 |
| 5.4 nM | B26 |
| < 1.4 nM | B27 |

From US20140179896A1 (published 2014)
